In patent US20230265151A1, “GIP/GLP1 CO-AGONIST COMPOUNDS” (priority 2020, published 2023):

What was measured:
Assay in all cases: cell-based or functional assay
human GIP receptor = target: T1, human GIP receptor (human, UniProt P48546 22-466)
T1 sequence (looked up): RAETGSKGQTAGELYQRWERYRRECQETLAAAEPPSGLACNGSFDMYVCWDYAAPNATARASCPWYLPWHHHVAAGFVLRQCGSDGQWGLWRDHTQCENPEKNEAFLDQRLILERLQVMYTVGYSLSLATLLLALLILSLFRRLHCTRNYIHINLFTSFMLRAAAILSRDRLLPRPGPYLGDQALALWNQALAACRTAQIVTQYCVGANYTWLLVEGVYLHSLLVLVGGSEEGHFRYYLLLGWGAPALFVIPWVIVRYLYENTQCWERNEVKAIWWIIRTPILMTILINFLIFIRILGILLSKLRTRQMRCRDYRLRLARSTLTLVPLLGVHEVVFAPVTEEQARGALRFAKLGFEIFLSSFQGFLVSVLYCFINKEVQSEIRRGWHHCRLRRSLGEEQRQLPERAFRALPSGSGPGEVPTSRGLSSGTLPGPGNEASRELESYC

human glucagon receptor = human glucagon receptor (human, UniProt P47871 26-477)
human GLP-1 receptor = human GLP-1 receptor (human, UniProt P43220 24-463)

B1: Example 75 (peptide)
peptide: YXEGTXTSDXSIXLDXIAQXKFIXXLIEGGPSSGAPPPSK
modifications: Aib2, αMeF(2F)6, 4Pal10, αMeL13, Orn16, Aib20, D-Glu24, αMeY25, K21 and K40: K(AEEA2-(γ-Glu)-CO-(CH2)12-CO2H), C-terminal NH2
B1 was tested, and the “EC50, cAMP” value (human GIP receptor) was 0.0182 nM, the “Emax, cAMP” value (human GIP receptor) was 92.3% and the “EC50, cAMP” value (human glucagon receptor) was greater than 9950 nM. The “EC50, cAMP” value (human GLP-1 receptor) was 0.411 nM.

B2: Example 82 (peptide)
peptide: YXEGTXTSDXSIXLDXKAQXEXIKXLIEGGPSSGAPPPS
modifications: Aib2, αMeF(2F)6, 4Pal10, αMeL13, Orn16, Aib20, αMeF22, αMeY25, K17 and K24: K(AEEA2-(γ-Glu)-CO-(CH2)12-CO2H), C-terminal NH2
With B2 the “EC50, cAMP” value (human GIP receptor) was 0.0206 nM, the “Emax, cAMP” value (human GIP receptor) was 81.4% and the “EC50, cAMP” value (human glucagon receptor) was greater than 9950 nM. The “EC50, cAMP” value (human GLP-1 receptor) was 4.78 nM.

B3: Example 85 (peptide)
peptide: YXEGTXTSDXSIXLDXKAQXEXIKYLIEGGPSSGAPPPS
modifications: Aib2, αMeF(2F)6, 4Pal10, αMeL13, Orn16, Aib20, αMeF22, K17 and K24: K(AEEA2-(γ-Glu)-CO-(CH2)12-CO2H), C-terminal NH2
For B3, the “EC50, cAMP” value (human GIP receptor) was 0.0312 nM, the “Emax, cAMP” value (human GIP receptor) was 91.7% and the “EC50, cAMP” value (human glucagon receptor) was greater than 9950 nM. For the same binder, the “EC50, cAMP” value (human GLP-1 receptor) was 7.69 nM and the “Emax, cAMP” value (human GLP-1 receptor) was 95.3%.

B4: Example 84 (peptide)
peptide: YXEGTXTSDXSIXLDXKAQXEXIKXLIEGGPSSGAPPPS
modifications: Aib2, αMeF(2F)6, 4Pal10, αMeL13, Orn16, Aib20, αMeF22, αMeF25, K17 and K24: K(AEEA2-(γ-Glu)-CO-(CH2)12-CO2H), C-terminal NH2
With B4 the “EC50, cAMP” value (human GIP receptor) was 0.0315 nM, the “Emax, cAMP” value (human GIP receptor) was 98.5% and the “EC50, cAMP” value (human glucagon receptor) was greater than 9950 nM. For the same binder, the “EC50, cAMP” value (human GLP-1 receptor) was 5.27 nM and the “Emax, cAMP” value (human GLP-1 receptor) was 94%.

B5: Example 74 (peptide)
peptide: YXEGTXTSDXSIXLDXIAQXKFIXXLIEGGKSSGAPPPS
modifications: Aib2, αMeF(2F)6, 4Pal10, αMeL13, Orn16, Aib20, D-Glu24, αMeY25, K21 and K31: K(AEEA2-(γ-Glu)-CO-(CH2)12-CO2H), C-terminal NH2
B5 was tested, and the “EC50, cAMP” value (human GIP receptor) was 0.0156 nM, the “Emax, cAMP” value (human GIP receptor) was 93.3% and the “EC50, cAMP” value (human glucagon receptor) was greater than 9950 nM. The “EC50, cAMP” value (human GLP-1 receptor) was 0.334 nM.

B6: Example 86 (peptide)
peptide: YXEGTXTSDXSIXLDXQAQXEFIXXLIKGGKSSGAPPPS
modifications: Aib2, αMeF(2F)6, 4Pal10, αMeL13, Orn16, Aib20, D-Glu24, αMeY25, K28 and K31: K(AEEA2-(γ-Glu)-CO-(CH2)12-CO2H), C-terminal NH2
With B6 the “EC50, cAMP” value (human GIP receptor) was 0.0184 nM, the “Emax, cAMP” value (human GIP receptor) was 94.2% and the “EC50, cAMP” value (human glucagon receptor) was greater than 9950 nM. For the same binder, the “EC50, cAMP” value (human GLP-1 receptor) was 0.359 nM.

B7: Example 5 (peptide)
peptide: YXEGTXTSDXSIXLDXKAQXEFIXXLIEGGKSSGAPPPS
modifications: Aib2, αMeF(2F)6, 4Pal10, αMeL13, Orn16, Aib20, D-Glu24, αMeY25, K17 and K31: K(AEEA2-(γ-Glu)-CO-(CH2)10-CH3), C-terminal NH2
With B7 the “EC50, cAMP” value (human GIP receptor) was 0.00585 nM, the “EC50, cAMP” value (human glucagon receptor) was greater than 9150 nM and the “EC50, cAMP” value (human GLP-1 receptor) was 0.057 nM.

B8: Example 81 (peptide)
peptide: YXEGTXTSDXSIXLDXKAQXEFIKXLIEGGPSSGAPPPS
modifications: Aib2, αMeF(2F)6, 4Pal10, αMeL13, Orn16, Aib20, αMeY25, K17 and K24: K(AEEA2-CO-(CH2)12-CO2H), C-terminal NH2
B8 was tested, and the “EC50, cAMP” value (human GIP receptor) was 0.0114 nM, the “EC50, cAMP” value (human glucagon receptor) was greater than 9950 nM and the “EC50, cAMP” value (human GLP-1 receptor) was 0.176 nM.

B9: Example 90 (peptide)
peptide: YXEGTXTSDVSIXLDXKAQXEFIXXLIEGGKSSGAPPPS
modifications: Aib2, αMeF(2F)6, αMeL13, Orn16, Aib20, D-Glu24, αMeY25, K17 and K31: K(AEEA2-(γ-Glu)-CO-(CH2)12-CO2H), C-terminal NH2
In the case of B9, the “EC50, cAMP” value (human GIP receptor) is reported as 0.0436 nM, the “Emax, cAMP” value (human GIP receptor) is reported as 93% and the “EC50, cAMP” value (human glucagon receptor) is reported as greater than 9950 nM. For the same binder, the “EC50, cAMP” value (human GLP-1 receptor) was 0.221 nM and the “Emax, cAMP” value (human GLP-1 receptor) was 96.2%.

B10: Example 99 (peptide)
peptide: YXEGTXTSDXSIXLDXKAQXEXIXXLIEGGKSSGAPPPS
modifications: Aib2, αMeF(2F)6, 4Pal10, αMeL13, Orn16, Aib20, 2Nal22, D-Glu24, αMeY25, K17 and K31: K(AEEA2-(γ-Glu)-CO-(CH2)12-CO2H), C-terminal NH2
B10 was tested, and the “EC50, cAMP” value (human GIP receptor) was 0.0235 nM, the “EC50, cAMP” value (human glucagon receptor) was greater than 9950 nM and the “EC50, cAMP” value (human GLP-1 receptor) was 0.349 nM.

B11: Example 95 (peptide)
peptide: YXEGTXTSDXSIXLDXKAQXEFIXXLIEGGKSSGAPPPS
modifications: Aib2, αMeF(2F)6, Ac4c10, αMeL13, Orn16, Aib20, D-Glu24, αMeY25, K17 and K31: K(AEEA2-(γ-Glu)-CO-(CH2)12-CO2H), C-terminal NH2
B11 was tested, and the “EC50, cAMP” value (human GIP receptor) was 0.0748 nM, the “EC50, cAMP” value (human glucagon receptor) was greater than 9950 nM and the “EC50, cAMP” value (human GLP-1 receptor) was 0.181 nM.

B12: Example 78 (peptide)
peptide: YXEGTXTSDXSIXLDXKAQXKFIXXLIEGGPSSGAPPPS
modifications: Aib2, αMeF(2F)6, 4Pal10, αMeL13, Orn16, Aib20, D-Glu24, αMeY25, K17 and K21: K(AEEA2-CO-(CH2)12-CO2H), C-terminal NH2
In the case of B12, the “EC50, cAMP” value (human GIP receptor) is reported as 0.0145 nM, the “EC50, cAMP” value (human glucagon receptor) is reported as greater than 9950 nM and the “EC50, cAMP” value (human GLP-1 receptor) is reported as 0.286 nM.

B13: Example 97 (peptide)
peptide: YXEGTXTSDXSIXLDXKAQXEFIXXLIEGGKSSGAPPPS
modifications: Aib2, αMeF(2F)6, ChG10, αMeL13, Orn16, Aib20, D-Glu24, αMeY25, K17 and K31: K(AEEA2-(γ-Glu)-CO-(CH2)12-CO2H), C-terminal NH2
B13 was tested, and the “EC50, cAMP” value (human GIP receptor) was 0.0276 nM, the “EC50, cAMP” value (human glucagon receptor) was greater than 9950 nM and the “EC50, cAMP” value (human GLP-1 receptor) was 0.683 nM.

B14: Example 101 (peptide)
peptide: YXEGTXTSDXSIXLDGKAQXEFIXXLIEGGKSSGAPPPS
modifications: Aib2, αMeF(2F)6, 4Pal10, αMeL13, Aib20, D-Glu24, αMeY25, K17 and K31: K(AEEA2-(γ-Glu)-CO-(CH2)12-CO2H), C-terminal NH2
In the case of B14, the “EC50, cAMP” value (human GIP receptor) is reported as 0.0297 nM, the “Emax, cAMP” value (human GIP receptor) is reported as 92.1% and the “EC50, cAMP” value (human glucagon receptor) is reported as greater than 9950 nM. For the same binder, the “EC50, cAMP” value (human GLP-1 receptor) was 2.94 nM.

B15: Example 96 (peptide)
peptide: YXEGTXTSDXSIXLDXKAQXEFIXXLIEGGKSSGAPPPS
modifications: Aib2, αMeF(2F)6, 4CPhe10, αMeL13, Orn16, Aib20, D-Glu24, αMeY25, K17 and K31: K(AEEA2-(γ-Glu)-CO-(CH2)12-CO2H), C-terminal NH2
For B15, the “EC50, cAMP” value (human GIP receptor) was 0.0484 nM, the “EC50, cAMP” value (human glucagon receptor) was greater than 9950 nM and the “EC50, cAMP” value (human GLP-1 receptor) was 6.81 nM.

B16: Example 87 (peptide)
peptide: YXEGTXTSDXSIXLDXKAQXEFIXXLIEGGKSSGAPPPS
modifications: Aib2, αMeF(2F)6, αMeF(2F)10, αMeL13, Orn16, Aib20, D-Glu24, αMeY25, K17 and K31: K(AEEA2-(γ-Glu)-CO-(CH2)12-CO2H), C-terminal NH2
For B16, the “EC50, cAMP” value (human GIP receptor) was 0.029 nM, the “Emax, cAMP” value (human GIP receptor) was 84.7% and the “EC50, cAMP” value (human glucagon receptor) was greater than 9950 nM. The “EC50, cAMP” value (human GLP-1 receptor) was 1.34 nM.
